This is an account of results in the supplement of paper PMC12764529.

Data set [1] is described as follows: folding stability dG unfold from trypsin proteolysis; higher = more stable. Put shortly:
(§1)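 K50 was inferred by Bayesian fitting of sequencing counts obtained after protease digestion of designed mini-proteins. Unfolding free energy was derived by comparison with a sequence-predicted unfolded-state K50 and a shared folded-state K50, for each protease or both combined. The mini-proteins were under 80 residues, had no cysteine, were carried in a PA-tagged cDNA display construct, and were kept only if AlphaFold2 dimer inter-PAE exceeded 15.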

Data set [2] can be described thus: folding stability dG unfold (combined trypsin and chymotrypsin); higher = more stable. The method, boiled down:
as §1

Data set [3] is described as follows: folding stability dG unfold from chymotrypsin proteolysis; higher = more stable. The method, boiled down:
as §1

± gives the half width of the 95% confidence interval.

Regarding “SAGGPPGWKPVEMKITVMFDDPEEAAEKIKEEVRSHFPNIEITKVEVQRNPENNMYMVTVDIRMWVPSAGGS [r8_120_TrROS]”, the “folding stability dG unfold” value in data set [1] turned out to be 3.08 ± 0.18 kcal/mol; in data set [2], 3.37 ± 0.11 kcal/mol; in data set [3], 3.37 ± 0.081 kcal/mol.

On to “SAGGPPIKKIEITKIHPGKGIIQVSIKLPGDGHPIMVRAEIDDPEPGKIKIEIQDPNNGQPQEITIKFSAGG [r13_337_TrROS]”, for which the “folding stability dG unfold” value is 1.23 ± 0.094 kcal/mol in data set [1], 1.1 ± 0.28 kcal/mol in data set [2] and 0.683 ± 0.08 kcal/mol in data set [3].

Regarding “SAGGPPRPVRIDIDPDAGSIEIMFPNGWPYEIPIPPDSIDEITLDPNDHVIEIKMPGKEIKFDIEPVSAGGS [r16_104_TrROS]”, the figures for the “folding stability dG unfold” value in data set [1], in data set [2] and in data set [3] were -0.376 ± 0.12 kcal/mol, 0.443 ± 0.11 kcal/mol and 0.757 ± 0.029 kcal/mol, respectively.

For “SAGGPPVAEIRVTEEDPETGVVRMEATLPEAPRPVRATGTRLDPGGGTVLVTVTDPDGGPDTTTTLAASAGG [r13_337_JUSTAS]”, the “folding stability dG unfold” value in data set [1] is -0.308 ± 0.1 kcal/mol; in data set [2], 0.0684 ± 0.12 kcal/mol; in data set [3], 0.221 ± 0.12 kcal/mol.

With “SAGGPPVIRFPTAEIPASGTIEDIVAAIERATGEPLPEELVEQILNGKTIEEIIELLKKRGYPVEYLSAGGS [r16_601_JUSTAS]”, the “folding stability dG unfold” value in data set [1] was 3.84 ± 0.14 kcal/mol; in data set [2], 3.33 ± 0.088 kcal/mol; in data set [3] it was 3.11 ± 0.074 kcal/mol.

“SAGGPRVEVEEVELEGDYLVVRARVEVPLDDGTYEFELTLVLPVPPPPLPLPPVDPRFPRAPDDDLVSAGGS [r8_234_TrMRF]”: the “folding stability dG unfold” value turned out to be 0.584 ± 0.073 kcal/mol in data set [1], 0.971 ± 0.13 kcal/mol in data set [2] and 1.33 ± 0.073 kcal/mol in data set [3].

For “SAGGPVFEVTPEVDPDTDLVTYTVRVPADVDFAAVAKALETEFADGSRAEVKPLPDGTVVVVVRLPASAGGS [r8_255_TrMRF]”, the “folding stability dG unfold” value in data set [1] amounted to 1.25 ± 0.023 kcal/mol; in data set [2], 0.942 ± 0.059 kcal/mol; in data set [3], 0.307 ± 0.12 kcal/mol.

With “SAGGPVLRLSFPTRTPDGELVRVEVVYDPETGALLVRVYSLTRPNRAVLYLVDPENPLTVLRAEELPLSAGG [r13_400_TrMRF]”, the “folding stability dG unfold” value in data set [1] came out at 2.47 ± 0.11 kcal/mol; in data set [2] it was 2.82 ± 0.18 kcal/mol; in data set [3] it was 3.01 ± 0.071 kcal/mol.

Turning to “SAGGPVVTTTTEYDPSTGKTYTVTTVPGSATQTTTYTLPDGTVLTTTTTVSPTTGGVTSTTPTTTPVPASAG [r5_587_JUSTAS]”, the entries for the “folding stability dG unfold” value in data set [1], in data set [2] and in data set [3] were 1.3 ± 0.046 kcal/mol, 1.39 ± 0.061 kcal/mol and 1.31 ± 0.089 kcal/mol, respectively.

In the case of “SAGGPWHEQKHEITDPDDGKPIKISHTHYPDGYPRVRIELNNGKKIEFMVPPNGPPTPDQLLDAIKQFSAGG [r13_492_TrROS]”, the “folding stability dG unfold” value in data set [1] amounted to 0.317 ± 0.092 kcal/mol; in data set [2] it was 0.478 ± 0.11 kcal/mol; in data set [3], 0.452 ± 0.16 kcal/mol.

With “SAGGPWRFEIDDIQPPEDGKVQIRIKLYNDDGEPIQELSIPMKGVDDVKITIPIGNQPIKIPITVVPASAGG [r13_427_TrROS]”, the “folding stability dG unfold” value is -0.13 ± 0.27 kcal/mol in data set [1], 0.361 ± 0.19 kcal/mol in data set [2] and 0.614 ± 0.22 kcal/mol in data set [3].

Consider “SAGGPYMEIQFPMPEDQVRPALEKAADEWGMEVKEINYHPNNGMVTITVNDNMPPNRIRKAIEKVLKSAGGS [r8_338_TrROS]”, for which the entries for the “folding stability dG unfold” value in data set [1], in data set [2] and in data set [3] were -0.784 ± 0.4 kcal/mol, -0.181 ± 0.15 kcal/mol and 0.0859 ± 0.09 kcal/mol, respectively.

With “SAGGREITIMIWMPLEDMEEFANEIANALAAEGYKVKDIEIQFKVIPDPENGRPWVMFMIEVEIEPPSAGGS [r8_475_TrROS]”, the results for the “folding stability dG unfold” value in data set [1], in data set [2] and in data set [3] were 2.96 ± 0.19 kcal/mol, 4.27 ± 0.1 kcal/mol and 4.717 ± 0.044 kcal/mol, respectively.

For “SAGGRFYFEAKDPSITPEELRAALEEAFGVKFHRIKPVEPLPDGMLYEVEIPEIGGHFDVSAEEIEKLLSAG [r5_550_TrMRF]”, the “folding stability dG unfold” value was 1.27 ± 0.053 kcal/mol in data set [1], 1.56 ± 0.16 kcal/mol in data set [2] and 1.78 ± 0.077 kcal/mol in data set [3].

Regarding “SAGGRGVGRPGSRLLLVAEADLEPDEVSVEELAERIREAFPDVRVVDLRVEVGGEKARLFALVELDVSAGGS [r8_202_TrMRF]”, the entries for the “folding stability dG unfold” value in data set [1], in data set [2] and in data set [3] were 0.917 ± 0.077 kcal/mol, 1.41 ± 0.092 kcal/mol and 1.64 ± 0.067 kcal/mol, respectively.
